Measurements as given in US11104735B2, “Inhibition of cytokine-induced SH2 protein in NK cells” (The Walter and Eliza Hall Institute of Medical Research, priority 2015, dated 2021).

Assays:
[1] = biological target: T1, JAK1 phosphopeptide (JAK1-Y1034) (Homo sapiens, UniProt P23458); assay: ITC, CIS constructs binding to JAK1 phosphopeptide; conditions: CIS constructs with elongins B and C
T1 construct: purchased Genscript
Experimental: 300 μM phosphopeptides were titrated into a 30 μM solution of the GST-CIS-SH2-BC ternary complex. ITC titration curves are shown. The titration curves all fitted well to a single-site model.
Isothermal calorimetric titrations were performed with a Microcal ITC200 (GE Healthcare). Phosphopeptides were obtained from Genscript. An optimised GST-CIS protein construct was prepared in which the internal PEST region ([…]) was deleted. The resulting ternary GST-CIS-SH2-SB complexes were dialysed against buffer (20 mM Tris pH 8.0, 100 mM NaCl, 2 mM 2-mercaptoethanol). Experiments were performed at 298 K unless stated otherwise. Typically, 12×3.15 μl injections of 300 μM phosphopeptides were titrated into a 30 μM solution of the GST-CIS-SH2-SB ternary complex. The heat of dilution of GST-CIS-SH2-BC was subtracted from the raw data of the binding experiment. Data were analysed using the evaluation software, Microcal Origin version 5.0. The binding curve fitted a single-site binding mode and all KD values were determined from duplicate experiments.

JAK1 = JAK1 (Homo sapiens, UniProt P23458); assay: In vitro kinase inhibition assay, JAK1 kinase domain (JH1) with STAT5b substrate peptide; assay type: biochemical
JAK1, sequence (P23458 875-1153 limits assumed): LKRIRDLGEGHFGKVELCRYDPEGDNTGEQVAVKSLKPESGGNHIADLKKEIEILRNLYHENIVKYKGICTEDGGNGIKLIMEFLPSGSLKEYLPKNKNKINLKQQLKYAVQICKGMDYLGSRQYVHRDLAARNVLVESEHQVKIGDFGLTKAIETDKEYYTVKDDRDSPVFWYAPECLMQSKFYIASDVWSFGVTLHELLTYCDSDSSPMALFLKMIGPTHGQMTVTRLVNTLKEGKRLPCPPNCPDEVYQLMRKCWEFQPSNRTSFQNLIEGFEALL
Experimental: Protein kinase assays, including high throughput kinase assays are known in the art as described in, e.g., in Babon et al. (2013) and Von Ahsen et al. (2005). In one exemplary embodiment 130 μM STAT5b peptide (SEQ ID NO:18 […]) is incubated with 5 nM human JAK1 (see SEQ ID NO:11 for corresponding amino acid sequence) at 25° C. for 30-60 min in 20 mM Tris pH 8.0, 100 mM NaCl, 5 mM 2-mercaptoethanol, 0.2 mg ml^−1 bovine serum albumin, 2 mM MgCl2, 100 μM ATP and 1 μCi γ-[^32P]ATP. […] After incubation, the reaction is spotted onto P81 phosphocellulose paper and quenched in 5% H3PO4. The paper is then washed (4×200 ml, 15 min) with 5% H3PO4 and exposed to a phosphorimager plate. Quantitation is performed using phosphorimager software and IC50 curves are then calculated based on integrated pixel counts.
Kinase inhibition assays were performed essentially as described (Babon et al., 2012). Briefly, 130 μM STAT5b peptide (SEQ ID NO:18 […]) was incubated with 5 nM JAK1 at 25° C. for 30-60 min in 20 mM Tris pH 8.0, 100 mM NaCl, 5 mM 2-mercaptoethanol, 0.2 mg ml^−1 bovine serum albumin, 2 mM MgCl2, 100 μM ATP and 1 mCi γ-[32P]ATP. […] After incubation, the reaction was spotted onto P81 phosphocellulose paper and quenched in 5% H3PO4. The paper was washed (4×200 ml, 15 min) with 5% H3PO4 and exposed to a phosphorimager plate (Fuji). Quantitation was performed using Fuji software and IC50 curves calculated using Graphpad Prism.

Row | Binding affinity (ITC) to JAK1 phosphopeptide [1] | IC50 (JAK1; JAK1 JH1, in vitro kinase reaction, read-out: IC50, inhibition of JAK1 phosphorylation of a substrate peptide) [nM] | Inhibition of JAK1 relative to inhibition of JAK2, JAK3 or TYK2 (JAK1; JH1 domains of all four JAKs) [fold] | Lower efficiency of JAK1 inhibition than SOCS1 (JAK1; compared with SOCS1) [fold] | Molecule
1 | greatest reduction in binding |  |  |  | CIS-ΔN34: human CIS lacking the N-terminal 34 residues, in complex with elongins B and C (protein, UniProt Q9NSE2 35-258, looked up, fragment, complex with elongins B and C) QPLPAGAFLEEVAEGTPAQTESEPKVLDPEEDLLCIAKTFSYLRESGWYWGSITASEARQHLQKMPEGTFLVRDSTHPSYLFTLSVKTTRGPTNVRIEYADSSFRLDSNCLSRPRILAFPDVVSLVQHYVASCTADTRSDSPDPAPTPALPMPKEDAPSDPALPAPPPATAVHLKLVQPFVRRSSARSLQHLCRLVINRLVADVDCLPLPRRMADYLRQYPFQL
2 |  | 120 ± 20 | ≥ 20 | 100 | CIS-SH2-BC complex: recombinant trimeric complex of human GST-CIS construct (hCIS-SH2; residues 66-258) and Elongins B and C (protein, left off: small tags and cut ends, recombinant trimeric complex of human GST-CIS construct (hCIS-SH2; residues 66-258) and Elongins B and C) MVLCVQGSCPLLAVEQIGRRPLWAQSLELPGPAMQPLPTGAFPEEVTEETPVQAENEPKVLDPEGDLLCIAKTFSYLRESGWYWGSITASEARQHLQKMPEGTFLVRDSTHPSYLFTLSVKTTRGPTNVRIEYADSSFRLDSNCLSRPRILAFPDVVSLVQHYVASCAADTRSDSPDPAPTPALPMSKQDAPSDSVLPIPVATAVHLKLVQPFVRRSSARSLQHLCRLVINRLVADVDCLPLPRRMADYLRQYPFQL
